Data reported in publication PMC2174220.
Blank lines part the entries; values can stand above or below the substance they belong to.

How the values were obtained:
[1] = biological target: dynamitin (p50) subunit of dynactin, endogenous bovine (bovine) (UniProt Q3ZCF0); test: co-sedimentation
[2] = biological target: p62 subunit of dynactin (bovine); test: ion exchange chromatography
[3] = biological target: p150^Glued subunit of dynactin (bovine); test: co-sedimentation

Chain of p62 subunit of dynactin (bovine) (Q9QUR2 whole entry): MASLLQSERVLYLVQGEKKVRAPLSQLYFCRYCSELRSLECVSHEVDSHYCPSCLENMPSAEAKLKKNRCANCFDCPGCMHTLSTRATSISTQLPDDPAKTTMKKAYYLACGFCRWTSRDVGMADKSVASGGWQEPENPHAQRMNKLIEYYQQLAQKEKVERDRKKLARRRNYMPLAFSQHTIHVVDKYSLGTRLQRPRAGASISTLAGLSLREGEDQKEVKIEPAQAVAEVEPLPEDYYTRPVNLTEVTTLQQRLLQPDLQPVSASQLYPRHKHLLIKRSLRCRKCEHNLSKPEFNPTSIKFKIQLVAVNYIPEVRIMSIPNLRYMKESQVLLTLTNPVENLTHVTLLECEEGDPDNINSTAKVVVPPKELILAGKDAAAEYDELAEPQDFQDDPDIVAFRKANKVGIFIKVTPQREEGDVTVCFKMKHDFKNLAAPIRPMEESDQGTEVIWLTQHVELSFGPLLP

Substance: Arp1, actin-related protein of the dynactin minifilament (natural protein)
stoichiometry N (Arp1 per dynamitin) [1]: 1.97

Substance: Arp11, novel actin-related protein of the dynactin pointed-end complex (from UniProt Q3ZBD2 1-417) (natural protein)
stoichiometry N ([2]; scale: Arp11 per 1 p62): 1

Substance: p25 subunit of dynactin (from UniProt Q9QZB9 1-182) (natural protein)
stoichiometry N ([2]; scale: p25 per 1 p62): 1

Continued, values first:

stoichiometry N ([3]; scale: dynamitin per 2 p150): 2
Substance: dynamitin (p50) subunit of dynactin, endogenous bovine (from UniProt Q3ZCF0 1-403) (natural protein)

stoichiometry N (p24 per 2 p150^Glued) [3]: 2
stoichiometry N ([3]; scale: p24 per 2 p150): 1
Substance: p24 subunit of dynactin (from UniProt Q0P5A1 1-186) (natural protein)

stoichiometry N ([2]; scale: p27 per 1 p62): 1
Substance: p27 subunit of dynactin (from UniProt Q148G7 1-190) (natural protein)
